Results on 1 molecule are retold here after paper PMC8636562, “Mounting, structure and autocleavage of a type VI secretion-associated Rhs polymorphic toxin” (Nature Communications, 2021).

Data set [1] concerns the molecule itself. Put plainly: cryo-EM structure; EagR-Strep/Rhs1-FLAG (D1338N, Y1351A, Y1375A) complex purified by StrepTrap and Superose 6; single particle, Talos Arctica 200 kV; 3.72 Å unmasked map, 3.17 Å masked on the Rhs1 shell; EagR dimer homology model fitted in low-resolution density.
Data set [2] concerns the target T1, Rhs1 D1338N Y1351A Y1375A, C-terminally FLAG-tagged (catalytic-null mutant used for cryo-EM) (Photorhabdus laumondii (P. luminescens …, UniProt Q7N9I0 1-1471, D1338N | Y1351A | Y1375A)).
T1 construct: Rhs1 (Plu0353) of Photorhabdus laumondii with D1338N (no C-terminal autocleavage) and Y1351A, Y1375A (no toxicity); atomic model built for residues 272-1357; also called Rhs1^FL; source: E. coli BL21(DE3), co-purified with EagR (StrepTrap HP, Superose 6)
T1 sequence (looked up): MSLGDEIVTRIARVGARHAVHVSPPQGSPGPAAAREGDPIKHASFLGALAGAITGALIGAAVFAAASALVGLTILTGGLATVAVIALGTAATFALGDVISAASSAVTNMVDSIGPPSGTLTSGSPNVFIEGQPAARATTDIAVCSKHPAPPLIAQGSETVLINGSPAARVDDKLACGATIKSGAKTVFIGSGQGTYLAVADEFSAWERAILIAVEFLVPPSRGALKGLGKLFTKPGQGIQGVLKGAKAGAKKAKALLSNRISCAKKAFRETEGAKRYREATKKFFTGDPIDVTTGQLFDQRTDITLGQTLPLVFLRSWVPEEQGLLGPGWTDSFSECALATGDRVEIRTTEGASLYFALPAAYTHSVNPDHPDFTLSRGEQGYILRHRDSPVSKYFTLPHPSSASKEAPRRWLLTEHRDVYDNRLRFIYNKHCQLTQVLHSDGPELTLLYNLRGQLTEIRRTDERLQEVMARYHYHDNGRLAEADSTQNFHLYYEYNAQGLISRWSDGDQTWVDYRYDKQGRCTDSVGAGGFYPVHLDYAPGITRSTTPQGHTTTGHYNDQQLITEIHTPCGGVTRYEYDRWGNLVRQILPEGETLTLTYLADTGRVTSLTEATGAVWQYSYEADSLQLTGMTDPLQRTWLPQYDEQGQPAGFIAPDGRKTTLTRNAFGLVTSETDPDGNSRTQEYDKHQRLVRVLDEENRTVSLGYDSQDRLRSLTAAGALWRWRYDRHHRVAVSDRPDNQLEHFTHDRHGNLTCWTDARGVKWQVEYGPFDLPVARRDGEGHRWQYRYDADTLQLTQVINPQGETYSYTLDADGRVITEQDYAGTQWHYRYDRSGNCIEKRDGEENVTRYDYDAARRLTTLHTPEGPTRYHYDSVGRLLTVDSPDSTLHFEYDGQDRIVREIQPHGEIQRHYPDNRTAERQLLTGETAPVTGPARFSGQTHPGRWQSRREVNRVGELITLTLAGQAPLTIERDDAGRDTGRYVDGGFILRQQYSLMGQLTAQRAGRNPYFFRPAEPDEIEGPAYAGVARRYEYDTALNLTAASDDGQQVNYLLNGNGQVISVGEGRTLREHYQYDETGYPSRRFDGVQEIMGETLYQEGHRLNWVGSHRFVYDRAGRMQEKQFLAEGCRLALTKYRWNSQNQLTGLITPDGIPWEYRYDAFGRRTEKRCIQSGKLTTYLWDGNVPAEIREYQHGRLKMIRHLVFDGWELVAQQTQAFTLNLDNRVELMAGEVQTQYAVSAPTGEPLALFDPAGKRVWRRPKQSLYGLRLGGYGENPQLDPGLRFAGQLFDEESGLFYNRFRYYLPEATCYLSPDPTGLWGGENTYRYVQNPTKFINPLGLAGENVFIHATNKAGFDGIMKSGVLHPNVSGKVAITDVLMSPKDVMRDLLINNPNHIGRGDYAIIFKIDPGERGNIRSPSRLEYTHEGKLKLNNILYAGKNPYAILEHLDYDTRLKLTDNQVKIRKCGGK
The data set is described as above. Conditions: both partners purified.

B1: Photorhabdus laumondii EagR chaperone (Plu0354), C-terminally Strep-tagged (natural protein)
chain: MENTTYQMNEGSLAIPGNWRDESMNVFVLPDDSGINLVVSRTPVPAGMDNPAYYEQTLEQFCTHLPGYQEHQRSEITLSQQPARRLDYQWTSPEGDMYQTVILQIRGPLLLTFNLTSPAPFEAGQRDTLLAIVHSFQAA
notes: Eag (DUF1795) family chaperone EagR of Photorhabdus laumondii, Plu0354; also called ^STEagR; EagR^ST; source: E. coli BL21(DE3), co-produced, in total cell extract; also purified in complexes (Strep-Tactin resin; StrepTrap HP and Superose 6); not shown: Strep-tag, C-terminal, kept
Regarding B1, the binding result in data set [1] and in data set [2] was “binds” in each case.
